From the domain aggregation screens of Martell et al. (2025)

assay: soluble fraction after stress (log2 fold change); higher = more stays soluble; pooled small domains, quantitative proteomics; conditions: stress: 75 degC
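Note: 20 min heating vs room temperature control held 20 min.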

Sequence | soluble fraction (log2)
HMKRITKKQLSQQLEQFFSSQPGKKLTLKDIFRALHLDTHPLKMLAMDIMEEMAWDDFITKKGENAYQLNT | -0.916
HMKRKAIDQSWQPDKEAIEILSKAGVNEEFIKEEIPEFILYWSEKGEESDTWNSKFIAQVRRQWAKTQH | -0.121
HMKRQATLQIGSKRFGMDDLYFKFTVPFEDSEKLGTATIEAYNLSPATRNSIKKGMPIILNAGYEGDI | -0.425
HMKRTMVEAAMVAKLFNLTVRRIQQLTQDGVLTTELVDKKRRYDLLLTVQKYIAYLQEKVAK | -3.41
HMKRVVFFNGISWYHRTKELLDDMTTKYGKKGGFATPEEAEKSYWEYEERYKDRQRELQVAYLKN | -1.79
HMKSDEGEIKKIVEEIISKNASVVEDYKKGKEVALQFLVGQGMKATKGSANPELLKKIILENI | 1.01
HMKSDVVFDITDGTVKAMLKFNRSDVTILNNDGKNYYLFTANGEFTFKYQDGSGEYYEKTVYVDWLEDE | -2.25
HMKSFIWKQYTVQITKKNVKNTNVRIKRDNPHVILMSIPYSATYKAGLLALETPHIRHWLDNYERKLKQ | -1.45
HMKSIEVPNLINMTLRKAKIELIDNEFNLDTVIYEYNPNIREGRVSLQIPESGTILKSGSNISIHISKGIP | -1.6
HMKSIPKIKWNSTLENIKNFEYQDNFFESKEMYDLLVSFYKYGFVIIKNIPTNNNFIVKFANSIGS | 0.0519
HMKSISMANGNVQLRINGVLASSLEVAALSPEDIKRVEYHDNPGLRYGEGIDIVLDYITIKRT | -0.754
HMKSISMSKLRHLLQLYVQGRSKKLISEQTGIARNTLKKYIKEFSEAGLSLEALLALSDKELEDLFVK | -2.86
HMKSLPQKLLAYLESQGLTRDEAGEFVKQGLKITSNDVDQIQLLLANTEVIDIKLQEFIAQK | 0.0281
HMKSLVDLEISIVKKDMNYFVLPKINGEPLLMERISASEYKDFQLGKLSKEDIFQKHYPDYSEENIKNGRG | -0.671
HMKSSISKNWNPSKDAIEILTRAGIDQEFLENLIPEFVIYWIERSDVLISYNSKFIEHARLKWAQHTAEIQ | 0.192
HMKSTPMYATAIVNIRSKAGTDSEILGKLNPSEEISVISSENGWSKVSYNGKEAYISSNYLSNAKP | -0.0974
HMKSVFQPIYEDLLSRIQDGRLLPGMPLPSENALAVQYGTSRPTIRRAIGLLVEKSLVIRQPGIGSIVAS | -1.32
HMKTALQENVRAYRLERKWTQQALAEALEVSVGAVSKWESGVSRPELETLMRLAELFGVSTDALLGF | -2.33
HMKTAWDELNEVIEAYRGQESALIEVLHKAQEIMGYLPRDVQEAIAEGLHVPLNKVYGVVSFYHHFSV | 0.449
HMKTERTVRVQDQHLHYTLEEKPIKNVNLRIRPDGSVYVSAPFGTSRTLIDDFVASKSKQILAIQQAQSAM | -0.277
HMKTGIGIVEANGGLRLRSQASTSSDVLSTAHNGDNVVVIRQVGNWYLVNYNLKIGYMHSDYITFKE | -5.04
HMKTGNIIAVSLVWKGKYYMIRMFFPSAARPSRADVQTEIEKVYPGSKLSSFSVSDYEPGQPLLQV | -3.05
HMKTGTTGLIGEIGVVKKALTPEGKVFVHGELWRAVSKTASPEGTLVQVIKINNLVLEVEKV | -2.98
HMKTILEKDQRLAKYISYLIKRKRLSPEQVIEHLKTDDHGYEKYPKSINTIYAAIDKGLIPSVTRQDM | -0.509
HMKTKMTPELTTVIEAQIQKEWSPEQISGWLKKTHPVSVSHQRIYQHIQADRQQGGTLHQHLRQAK | 0.00699
HMKTKTFSPGEIVKIQTRDKSWQGTILESHDPEIILLKLTTGYNIGIRENEIINAKVIEKSKKDVKDAE | 0.258
HMKTKTIMSTGAREDLVKMINEYYYSKNYIITEDNRIYNTKTEKFMDDLSVKFYRGRWKVIRN | -0.852
HMKTLDATQRLKLNGEGIIVFNFGKYVDQPVVEIFKKERGYFAWMMSKDFSQQVKNIITKIHNEEILGK | -3.01

Sequence | soluble fraction (log2)
HMKTLKHYFASIAHEFGREEAELMLLSVFKTPFEQRLMLFMKDPALTEAQVQQLDNLVRQRKQGVPLPYIL | -2.68
HMKTLPADPTVKNFSYTVVDGEIYYRENSIMTQIELSDNAKGRVAGMVELRQIVNELIDQQLND | -0.849
HMKTMEQSYIGRKIILDENVEDSALIKFEGIYWTFKSVSGPLKKGTEVEIIGIEGNKILIKNK | -0.988
HMKTPIEFGSVYNDPVRYVIGMSIKSAESINQAIYDMMKIFGDENNMNKFDSLPDEQAVLDMVNSF | 0.0725
HMKTRIQDLRKELGVTQSELADAVDVTRQTIISLEGGRYKASLVLAHKLAQFFHVTIEELFIFD | -2.32
HMKTRNISGNHEAVWQAVRSRTQAGHPTTRAVIMDDLKAQGLNTQKFSRWLKKLVDDGSVYMDGDTIIMGK | -0.306
HMKTRTVVLKSAGGNKIAVIKIIKEITGLGLVEAKAVADNGGNIKENIPAEEAEAIKTQLTEAGAEVEL | -0.664
HMKTRYPNVYQDEKGKFFYQIFIGTDTNGRKKLKKGRRDALGHPFSSAYQASKEAKRVQALYANVS | -2.02
HMKTSTGSAMYLTLDLAEKYAGQAFTLVHKKADGTFEYLYATADVDGKVKFGPVYELSPFMLVKGQL | -1.66
HMKTSVGSKMMVMANNLSIRKSANLLSEKLADLSKGDMVEYISSTNGWNKVRYNGYVGYVSSYYLKDTGEV | -2.21
HMKTTKDSVFEYIQKELMTNEEYKQGINTNVIAQHFGLQRSNISTILNELVKEDRLEKTNTRPVLYFLPQ | -0.208
HMKTTKRERARAKLIQLLENEDRPAKEIYAGLGDIGVGSRTVEKVKKELQVTTYRSGGSWYWSLPKP | -0.525
HMKTVKPSQIPYSEFLKLVETDKINDVSMVGRNIIGHLDDGSKFKTYTPPNDPTLIEKLSSHNIVINAAPE | 0.0923
HMKTVLDSLLRILDSKELDIVVLRHIVGLTLTEIAKEKDMKKGTVFWMYNRAVKKLRLESERMGL | -2.13
HMKTVPNVEGEKDGTAQSAIESAGLKVGKVTYQYDDNTSKGLVISQSVKGGEKVKPNTAIDLVVSNGPK | -0.117
HMKTYSEAQLKIALESLIENGKKQGYLTFQEINEILPDGIINTQDLKVIISILKETGIVVAKEKPEINIDV | 0.0761
HMKVEFTPAYLKKFKANKNAWKFYEAQTNTYKKQSAWYVISAKQEETRLRRLDLLIYDSENGIHIKPLRR | -2.74
HMKVFTEDEMLEKIKEYLSTNSYINRRVMETQFGLRQNIALKWLKHFTEIGVLRKEGERNSPIYFLNN | -0.356
HMKVKIFNGMKLVTNSTGLTVDGKPAALDESNADAKTYSQGLYVFIVYQSGKIAVMQDGKFLGYA | -3.34
HMKVLNVLESEIVRLFKQGQQKDNIRDNIYKTHGQHYNNKKSFNVVFGRKWNSLLEQGFLES | -1.23
HMKVRDTQYIIEAAISKNVIRKSKNIYYYGTDIIGRSLEDAIASLNDKKNQDIKMTILQEIES | -2.14
HMKVSKNKIVKGMGFHHVALKAVDFDASFKFYTEGLGMKFYTSWGEGNGKIAMLDLGDGGILELFA | 0.0409
HMKVTGITDDILQRLKQQKGYLMLSDKSSPDEIYAAFGVSKKVFKQAIGTLFKQRQIIIEEQGIRLAN | -1.3
HMKVTQDIIFKRNGEEIKSKVLEITPDLIIYIDYSRADNIAREINISEVNMIIYKNGTSEIFSRPEE | -1.69
HMKVTTGIDGLIGEEGVALSDFSGKGKIMVHGEIWNAEFSGEVKKGEVLLVEKANGMTLITRKKN | ≥ 1.04
HMKYKWLAGQLRRELLENGGKKGYKLPTELELARRYQLSRQTVRRALQLLEEEGLILRRQGSGAYATGKPP | -0.729
HMKYLREEDYLPIGSIIRLDDRNFRVDHVNFMFKSVSLQDMDLTNSGQPIFRSESLPHIRELYEQQQNELV | -0.877
